# Patent publication US20030099647A1 (published 2003)
# Read-outs that look alike come from different tables or passages of the source.
# T1: CHO expressed human interferon gamma (hIFNγ) (human, UniProt P01579 24-161, glycosylated (highly glycosylated form purified))
# T1 chain: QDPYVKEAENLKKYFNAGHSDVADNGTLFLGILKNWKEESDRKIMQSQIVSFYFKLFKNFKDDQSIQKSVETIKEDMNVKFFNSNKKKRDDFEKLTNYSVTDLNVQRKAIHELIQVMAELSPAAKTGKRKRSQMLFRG
# Tests used:
# [1] = target: T1, CHO expressed human interferon gamma …; test: BIAcore
# [2] = target: T1, CHO expressed human interferon gamma …; test: BIAcore
Binder,Kd [1] [nM],Kd [2] [nM]
"GP-A IgG (antibody, V domains shown) VH: QVQLVETGGGVVQPGRSLRLSCAASGFTFSSYAMHWVRQAPGKGLEWVAVISYDGSNKYYADSVKGRFTISRDNSKNTLYLQMNSLRAEDTAVYYCASDLVLTMTSRRAAFDIWGQGTMVTVSS VL: SYELTQPPSVSVSPGQTARITCSGDVLARKYARWFQQKPGQAPVLVIYKDRERPSGIPERFSGSTSGTTVTLTISGAQVEDEADYYCYSAADNRGVFGGGTKLTVLR",8,8
"Fab phage clone ""GP-A"" (Fab, V domains shown) VH: QVQLVETGGGVVQPGRSLRLSCAASGFTFSSYAMHWVRQAPGKGLEWVAVISYDGSNKYYADSVKGRFTISRDNSKNTLYLQMNSLRAEDTAVYYCASDLVLTMTSRRAAFDIWGQGTMVTVSS VL: SYELTQPPSVSVSPGQTARITCSGDVLARKYARWFQQKPGQAPVLVIYKDRERPSGIPERFSGSTSGTTVTLTISGAQVEDEADYYCYSAADNRGVFGGGTKLTVLR",150,–
"Fab phage clone ""IFN-A"" (Fab, V domains shown) VH: EVQLQQWGAGLLKPSETLSLTCAVYGGSFSGYYWSWIRQPPGKGLEWIGEINHSGSTNYNPSLKSRVTISVDTSKNQFSLKLSSVTAADTAVYYCARGWPTYVWGSYRPKGYFDYWGQGTLVTVSS VL: EIVLTQSPLSLPVTPGEPASISCRSSQSLLHTNEYNYLDWYLQKPGQSPQLLIYLGSNRAPGVPDRFSGSGSGTDFTLRISRVEADDVGVYYCMQALQTPRTFGQGTKLEIKR",420,–
"IFN-A IgG (antibody, V domains shown) VH: EVQLQQWGAGLLKPSETLSLTCAVYGGSFSGYYWSWIRQPPGKGLEWIGEINHSGSTNYNPSLKSRVTISVDTSKNQFSLKLSSVTAADTAVYYCARGWPTYVWGSYRPKGYFDYWGQGTLVTVSS VL: EIVLTQSPLSLPVTPGEPASISCRSSQSLLHTNEYNYLDWYLQKPGQSPQLLIYLGSNRAPGVPDRFSGSGSGTDFTLRISRVEADDVGVYYCMQALQTPRTFGQGTKLEIKR",18,18
"BS-A Fab (soluble, purified) (Fab, V domains shown) VH: QVQLQQWGAGLLKPSETLSLTCAVYGGSFSGYYWSWIRQPPGKGLEWIGEINHSGSTNYNPSLKSRVTISVDTSKNQFSLKLSSVTAADTAVYYCARGRARNWRSRFDYWGQGTLVTVSS VL: NFMLTQPHSVSESPGKTVTISCTGSSGSIASHYVQWYQQRPGSAPTNVIYEDKERPSGVPDRFSGSIDSSTNSASLTISGLKTEDEADYYCQSYDSSNQWVFGGGTKLTVLG",84.3,–
"BS-A IgG (antibody, V domains shown) VH: QVQLQQWGAGLLKPSETLSLTCAVYGGSFSGYYWSWIRQPPGKGLEWIGEINHSGSTNYNPSLKSRVTISVDTSKNQFSLKLSSVTAADTAVYYCARGRARNWRSRFDYWGQGTLVTVSS VL: NFMLTQPHSVSESPGKTVTISCTGSSGSIASHYVQWYQQRPGSAPTNVIYEDKERPSGVPDRFSGSIDSSTNSASLTISGLKTEDEADYYCQSYDSSNQWVFGGGTKLTVLG",6,6
"BS-B Fab (soluble, purified) (Fab, V domains shown) VH: not shown VL: NFMLTQPHSVSESPGKTVTISCTRSSGSIASYYVQWYQQRPGSSPTTVIYEDDQRPSGVPDRFSGSIDSASNSASLTISGLQTEDEADYYCQSYDRNSLVFGGGTKLTVLG",83.5,–
"BS-B IgG (antibody, V domains shown) VH: not shown VL: NFMLTQPHSVSESPGKTVTISCTRSSGSIASYYVQWYQQRPGSSPTTVIYEDDQRPSGVPDRFSGSIDSASNSASLTISGLQTEDEADYYCQSYDRNSLVFGGGTKLTVLG",0.5,0.5
"57E IgG (antibody, V domains shown) VH: QVQLQESGPGLVKPSETLSLTCAVSGGSISSGGYSWSWIRQPPGKGLEWIGYIYHSGSTYYNPSLKSRVTISVDRSKNQFSLKLSSVTAADTAVYYCARGDWGYFDYWGQGTLVTVSS VL: NFMLTQPHSVSESPGKTVTISCTGSSGSIANNYVHWYQQRPGSAPTTVIFEDDQRPSGVPDRFSGSVDSSSNSASLSISGLKTEDEADYYCQSYDNSNSFVVFGGGTKLTVLG",–,200
